The values below come from the supplement of paper PMC7877785.

The nature of this series: self-splicing fitness, log relative to wild type (ln ratio); higher = more splicing; Tetrahymena group I intron in knt gene, E. coli kanamycin selection, DiMSum; sequences stand for … in CUCUCU…GGAGGGAAAAGUUAUCAGGCAUGCACCUGGUAGCUAGUCUUUAAACCAAUAGAUUGCAUCGGUUUAAAAGGCAAGACCGUCAAAUUGCGGGAAAGGGGUCAACAGCCGUUCAGUACCAAGUCUCAGGGGAAACUUUGAGAUGGCCUUGCAAAGGGUAUGGUAAUAAGCUGACGGACAUGGUCCUAACCACGCAGCCAAGUCCUAAGUCAACAGAUCUUCUGUUGAUAUGGAUGCAGUUCACAGACUAAAUGUCGGUCGGGGAAGAUGUAUUCUUCUCAUAAGAUAUAGUCGGACCUCUCCUUAAUGGGAGCUAGCGGAUGAAGUGAUGCAACACUGGAGCCGCUGGGAACUAAUUUGUAUGCGAAAGUAUAUUGAUUAGUUUUGGAGUACUCGUGGUCG
A digest of the protocol:
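DiMSum derived fitness as the error-weighted combination of fold changes across replicates, kanamycin versus no kanamycin, normalised to wild type. E. coli BL21(DE3) held the library, which randomised all eight P1ex-region intron nucleotides within the knt kanamycin-resistance gene on pET-22b(+). Six replicate transformations grew overnight at 37°C or 30°C on LB agar with or without 25 μg/mL kanamycin, also containing 100 μg/mL carbenicillin, 50 μM IPTG and 0.2% rhamnose, and pooled colonies were amplicon-sequenced on an Illumina HiSeq 2500.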

± gives the uncertainty stated by the source.

For CAGGAGCAAUAUUACGUUGC, the “self-splicing fitness (ln)” value (37 °C) is -2.26 ± 0.28.

AUUAAGCAAUAUUACGUUCU: the “self-splicing fitness (ln)” value runs as follows: (30 °C) -0.566 ± 0.064; (37 °C) 0.034 ± 0.086. The like results for GAAGAGCAAUAUUACGGCGG were, in that order, -3.45 ± 0.2 and -2.19 ± 0.27. As for UAAUAGCAAUAUUACGUUGG, the “self-splicing fitness (ln)” value was -3.11 ± 0.13 (30 °C) and -0.991 ± 0.11 (37 °C). For UACGAGCAAUAUUACGGGGC, the “self-splicing fitness (ln)” value (37 °C) was -3.34 ± 0.3.

With GGCCAGCAAUAUUACGCGGU, the “self-splicing fitness (ln)” value was -3.63 ± 0.46 (30 °C) and -2.53 ± 0.34 (37 °C). For AUGAAGCAAUAUUACGCGUU the same measures were -2.78 ± 0.12 and -0.429 ± 0.093. For AUCCAGCAAUAUUACGCGCA the same measures were -0.994 ± 0.067 and -0.169 ± 0.081. For CUCGAGCAAUAUUACGGGGA the same measures were -2.71 ± 0.2 and -1.17 ± 0.18. In the case of CGUUAGCAAUAUUACGGGAG, the “self-splicing fitness (ln)” value by setting is: (30 °C) -3.32 ± 0.2; (37 °C) -2.39 ± 0.17. The like results for CCCGAGCAAUAUUACGGGAU were, in that order, -3.31 ± 0.23 and -2.08 ± 0.21. The like results for CUUUAGCAAUAUUACGCCGA were, in that order, -2.8 ± 0.48 and -2.32 ± 0.39. The like results for AGUGAGCAAUAUUACGAUUU were, in that order, -2.6 ± 0.24 and -1.12 ± 0.22. As to GGCCAGCAAUAUUACGCUAA, the “self-splicing fitness (ln)” value is, setting by setting: (30 °C) -0.606 ± 0.09; (37 °C) -0.303 ± 0.1. Turning to CACAAGCAAUAUUACGGAGC, the “self-splicing fitness (ln)” value reads like this: (30 °C) -3.77 ± 0.29; (37 °C) -3.25 ± 0.24. The like results for UAAAAGCAAUAUUACGGGUC were, in that order, -3.09 ± 0.25 and -2.82 ± 0.27. For GAAAAGCAAUAUUACGGAGG the same measures were -2.71 ± 0.14 and -1.73 ± 0.18.

On to GGAGAGCAAUAUUACGUAAC, for which the “self-splicing fitness (ln)” value is -1.69 ± 0.11 (30 °C) and -0.596 ± 0.15 (37 °C). Turning to GCGAAGCAAUAUUACGAAGG, the “self-splicing fitness (ln)” value reads like this: (30 °C) -0.597 ± 0.23; (37 °C) -0.295 ± 0.3. The like results for UCAAAGCAAUAUUACGCUAA were, in that order, -3.48 ± 0.25 and -2.87 ± 0.27. The like results for GGAUAGCAAUAUUACGGGUU were, in that order, -2.16 ± 0.096 and -1.42 ± 0.12. As for AUCGAGCAAUAUUACGUUAA, the “self-splicing fitness (ln)” value is -3.73 ± 0.27 (30 °C) and -2.48 ± 0.29 (37 °C). Turning to GAAGAGCAAUAUUACGCUCA, the “self-splicing fitness (ln)” value (37 °C) was -1.33 ± 0.48. For the sequence GCGAAGCAAUAUUACGGGCG, the “self-splicing fitness (ln)” value is, setting by setting: (30 °C) -1.84 ± 0.11; (37 °C) -0.509 ± 0.13. As for GACAAGCAAUAUUACGUUCU, the “self-splicing fitness (ln)” value by setting is: (30 °C) -2.9 ± 0.13; (37 °C) -1.45 ± 0.12. In the case of GCGGAGCAAUAUUACGGCUA, the “self-splicing fitness (ln)” value (37 °C) was -1.81 ± 0.39. Turning to CGUCAGCAAUAUUACGUACG, the “self-splicing fitness (ln)” value (30 °C) is -3.6 ± 0.43 and the “self-splicing fitness (ln)” value (37 °C) was -2.97 ± 0.37. As to CACCAGCAAUAUUACGUUUA, the “self-splicing fitness (ln)” value by setting is: (30 °C) -3.33 ± 0.16; (37 °C) -2.47 ± 0.13. The like results for GUCGAGCAAUAUUACGUCGU were, in that order, -0.515 ± 0.12 and -0.592 ± 0.17. ACCAAGCAAUAUUACGCUCG: the “self-splicing fitness (ln)” value is -2.2 ± 0.12 (30 °C) and -1.32 ± 0.13 (37 °C). As for CCCGAGCAAUAUUACGAAGU, the “self-splicing fitness (ln)” value is -3.58 ± 0.18 (30 °C) and -2.75 ± 0.24 (37 °C).

Regarding AGGCAGCAAUAUUACGAAUA, the “self-splicing fitness (ln)” value reads like this: (30 °C) -2.67 ± 0.25; (37 °C) -2.08 ± 0.22. The like results for CAGUAGCAAUAUUACGCGGG were, in that order, -3.1 ± 0.16 and -1.91 ± 0.17. The like results for ACUGAGCAAUAUUACGAGUU were, in that order, -2.88 ± 0.17 and -2.91 ± 0.28. On to UCUCAGCAAUAUUACGAGAC, for which the “self-splicing fitness (ln)” value (30 °C) was -2.81 ± 0.15 and the “self-splicing fitness (ln)” value (37 °C) was -2.71 ± 0.21. With UCGGAGCAAUAUUACGCGCU, for the setting “37 °C”, the “self-splicing fitness (ln)” value is -2.3 ± 0.37.

On to UAAUAGCAAUAUUACGUGUC, for which the “self-splicing fitness (ln)” value (30 °C) was -3.02 ± 0.23 and the “self-splicing fitness (ln)” value (37 °C) is -2.44 ± 0.3. For AUAGAGCAAUAUUACGGAAG, the “self-splicing fitness (ln)” value runs as follows: (30 °C) -2.48 ± 0.18; (37 °C) -1.45 ± 0.21.

With UGGAAGCAAUAUUACGAAAG, the “self-splicing fitness (ln)” value is -1.72 ± 0.16 (30 °C) and -0.893 ± 0.2 (37 °C). For GGAGAGCAAUAUUACGAUGC the same measures were -2.8 ± 0.33 and -0.975 ± 0.22. The like results for UAUAAGCAAUAUUACGGGGU were, in that order, -2.93 ± 0.24 and -2.66 ± 0.23. The like results for UAAAAGCAAUAUUACGUCCU were, in that order, -0.564 ± 0.095 and 0.00684 ± 0.13. Take CACAAGCAAUAUUACGAACU: the “self-splicing fitness (ln)” value (30 °C) was -3.64 ± 0.19 and the “self-splicing fitness (ln)” value (37 °C) is -2.37 ± 0.17. With UUUGAGCAAUAUUACGCCUA, the “self-splicing fitness (ln)” value (30 °C) is -0.79 ± 0.45. Take ACGUAGCAAUAUUACGAUAG: the “self-splicing fitness (ln)” value by setting is: (30 °C) -3.45 ± 0.24; (37 °C) -2.53 ± 0.23.

As for CGAUAGCAAUAUUACGAUAU, the “self-splicing fitness (ln)” value reads like this: (30 °C) -3.53 ± 0.16; (37 °C) -1.47 ± 0.12. The like results for AGAAAGCAAUAUUACGCGAU were, in that order, -3.37 ± 0.17 and -1.63 ± 0.13. With GAGGAGCAAUAUUACGGGAU, under “30 °C”, the “self-splicing fitness (ln)” value is -2.69 ± 0.28.

Turning to CAUGAGCAAUAUUACGCUUC, the “self-splicing fitness (ln)” value (37 °C) was -2.38 ± 0.32. As for GGCAAGCAAUAUUACGAAUA, the “self-splicing fitness (ln)” value runs as follows: (30 °C) -1.45 ± 0.079; (37 °C) -0.797 ± 0.083. For AGCGAGCAAUAUUACGGGUA the same measures were -2.6 ± 0.21 and -0.993 ± 0.18. The like results for UCUAAGCAAUAUUACGUCCU were, in that order, -2.72 ± 0.28 and -0.964 ± 0.21. For UGACAGCAAUAUUACGCGCU the same measures were -0.554 ± 0.086 and -0.657 ± 0.099. Turning to GUACAGCAAUAUUACGUUUC, the “self-splicing fitness (ln)” value (30 °C) is -3.44 ± 0.14 and the “self-splicing fitness (ln)” value (37 °C) was -1.87 ± 0.14. With CCCAAGCAAUAUUACGUCAA, the “self-splicing fitness (ln)” value is, setting by setting: (30 °C) -1.84 ± 0.14; (37 °C) -2.3 ± 0.19. Take AGGCAGCAAUAUUACGUGAA: the “self-splicing fitness (ln)” value is, setting by setting: (30 °C) -1.12 ± 0.07; (37 °C) -0.932 ± 0.11. Consider ACUAAGCAAUAUUACGAGGA, for which the “self-splicing fitness (ln)” value is -2.34 ± 0.23 (30 °C) and -2.13 ± 0.2 (37 °C). With CACUAGCAAUAUUACGGGUG, the “self-splicing fitness (ln)” value by setting is: (30 °C) -4.03 ± 0.36; (37 °C) -2.57 ± 0.21. For GAAAAGCAAUAUUACGACCU the same measures were -0.497 ± 0.13 and -1.42 ± 0.12. The like results for UGCUAGCAAUAUUACGGGCA were, in that order, -3.8 ± 0.25 and -2.02 ± 0.19. For GUGCAGCAAUAUUACGUUAC the same measures were -3.66 ± 0.33 and -2.93 ± 0.38. Turning to GGUCAGCAAUAUUACGGCUG, the “self-splicing fitness (ln)” value (30 °C) is -0.728 ± 0.078 and the “self-splicing fitness (ln)” value (37 °C) is -0.439 ± 0.091.
